B1: mouse talin-H (1–429) (domain or fragment, UniProt P26039 1-429, looked up)
chain: MVALSLKISIGNVVKTMQFEPSTMVYDACRMIRERIPEALAGPPNDFGLFLSDDDPKKGIWLEAGKALDYYMLRNGDTMEYRKKQRPLKIRMLDGTVKTIMVDDSKTVTDMLMTICARIGITNHDEYSLVRELMEEKKDEGTGTLRKDKTLLRDEKKMEKLKQKLHTDDELNWLDHGRTLREQGVEEHETLLLRRKFFYSDQNVDSRDPVQLNLLYVQARDDILNGSHPVSFDKACEFAGFQCQIQFGPHNEQKHKAGFLDLKDFLPKEYVKQKGERKIFQAHKNCGQMSEIEAKVRYVKLARSLKTYGVSFFLVKEKMKGKNKLVPRLLGITKECVMRVDEKTKEVIQEWSLTNIKRWAASPKSFTLDFGDYQDGYYSVQTTEGEQIAQLIAGYIDIILKKKKSKDHFGLEGDEESTMLEDSVSPKKS
notes: talin (talin-1), mouse, head domain, residues 1-429; Talin-H was cloned into pET28t and into pGST-1; also called talin head domain
B5: membrane-anchored Rap1b_TM2 (G12V, C51S, C118S, C141S), loaded with GMP-PNP (natural protein, human, UniProt P61224 1-184, looked up)
chain: MREYKLVVLGSVGVGKSALTVQFVQGIFVEKYDPTIEDSYRKQVEVDAQQSMLEILDTAGTEQFTAMRDLYMKNGQGFALVYSITAQSTFNDLQDLREQILRVKDTDDVPMILVGNKSDLEDERVVGKEQGQNLARQWNNSAFLESSAKSKINVNEIFYDLVRQINRKTPVPGKARKKSSCQLL
modifications: thiol group of Cys 180 joined to the maleimide group of the lipid PE MCC in vesicles
notes: Rap1b, human, with G12V, C51S, C118S, C141S; holds the C-terminal Cys 180 (so in the source); LUVs: 96% POPC, 1% PIP2, 3% PE MCC; MLVs: 87% POPC, 10% PIP2, 3% PE MCC; also called LUV-Rap1b; LUV-Rap1b (GMP-PNP); source: E. coli BL21 (DE3), purified, then tethered to vesicles (LUVs or MLVs) by thiol-maleimide crosslinking

Experiments:
[1] = target: membrane-anchored Rap1b_TM2 (G12V, C51S, C118S, C141S), loaded with GMP-PNP (human) (UniProt P61224); experiment: co-sedimentation; vesicle co-sedimentation: 10 μM talin-H or full-length talin with 10 μM MLV-Rap1b, MLV only or MLV + Rap1b; RT 15 min, 22,000 r.p.m. 35 min; pellet on SDS-PAGE, band normalized to MLV only
[2] = target: membrane-anchored Rap1b_TM2 (G12V, C51S, C118S, C141S), loaded with GMP-PNP (human, UniProt P61224 1-184, G12V | C51S | C118S | C141S, thiol group of Cys 180 joined to the maleimide group of the lipid PE MCC in vesicles); experiment: ITC; LUV-anchored Rap1b, GMP-PNP; 2nd experiment
[3] = target: B5; experiment: co-sedimentation; vesicle co-sedimentation: 10 μM talin-H or full-length talin with 10 μM MLV-Rap1b, MLV only or MLV + Rap1b; RT 15 min, 22,000 r.p.m. 35 min; pellet on SDS-PAGE, band normalized to MLV only; settings: both partners purified
[4] = target: T1, GFP-Rap1b (G12V), loaded with GMP-PNP (human, UniProt P61224 1-184, G12V); experiment: MST; GMP-PNP loaded; estimated, saturation not reached
[5] = target: T1, GFP-Rap1b (G12V), loaded with GMP-PNP; experiment: MST; GMP-PNP loaded
[6] = target: T2, Rap1b (G12V), loaded with GMP-PNP (active form) (human, UniProt P61224 1-184, G12V); experiment: NMR titration; HSQC titration of 45 μM 15N-labeled talin-F0 with increasing GMP-PNP-loaded Rap1b (G12V); average Kd of four residues; settings: both partners purified
T2 construct: Rap1b, human, with G12V; Loaded with the GTP analog GMP-PNP; Made by mutagenesis; Probably full length; also called active Rap1b; GMP-PNP loaded Rap1b
T2 sequence (looked up): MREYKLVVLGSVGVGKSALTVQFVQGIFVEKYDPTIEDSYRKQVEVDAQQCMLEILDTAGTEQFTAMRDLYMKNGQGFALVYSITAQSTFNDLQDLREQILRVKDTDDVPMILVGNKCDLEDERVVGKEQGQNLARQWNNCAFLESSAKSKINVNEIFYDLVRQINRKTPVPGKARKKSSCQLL

[7] = target: T3, mouse RIAM-RAPH (149–438) (mouse, UniProt Q8R5A3 149-438); experiment: MST; 100 nM GFP-Rap1b (G12V) with serial dilutions of the partner; 50 mM Tris-HCl pH 7.5, 100 mM NaCl, 5 mM MgCl2, 2 mM DTT, 0.05% Tween 20; RT; settings: both partners purified
T3 construct: RIAM, mouse, RA-PH domains, residues 149-438
T3 sequence (looked up): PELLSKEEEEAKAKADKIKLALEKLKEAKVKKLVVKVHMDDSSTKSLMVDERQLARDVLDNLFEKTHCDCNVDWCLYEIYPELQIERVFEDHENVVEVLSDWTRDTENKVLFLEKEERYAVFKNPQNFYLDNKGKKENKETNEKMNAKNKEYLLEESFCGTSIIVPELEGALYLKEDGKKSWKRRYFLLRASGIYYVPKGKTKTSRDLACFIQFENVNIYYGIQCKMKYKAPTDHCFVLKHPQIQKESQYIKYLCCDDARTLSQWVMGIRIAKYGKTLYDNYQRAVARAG

[8] = target: B1; experiment: ITC; 200 μM talin-H in the syringe into 15 μM LUV-Rap1b (GMP-PNP) in the cell; 25 °C; 25 mM NaH2PO4/Na2HPO4 pH 6.8, 100 mM NaCl, 5 mM MgCl2; single-site model; settings: both partners purified
[9] = target: T4, mouse full-length talin (mouse, UniProt P26039 1-2541); experiment: NMR titration; 2D HSQC of 45 μM GMP-PNP loaded 15N-labeled Rap1b (1–167) without and with 90 or 225 μM talin-F0, 90 μM talin-H or 45 μM full-length talin; 25 °C; 25 mM NaH2PO4/Na2HPO4 pH 6.8, 150 mM NaCl, 5 mM MgCl2, 2 mM DTT; settings: both partners purified
T4 construct: talin (talin-1), mouse, full length, in pET28t

[10] = target: B1; experiment: as above; settings: both partners purified
[11] = target: T4, mouse full-length talin; experiment: pull-down; GST pull-down of Fig. 3b, Rap1b with GDP or GTP analog; ~25 μg GST-fused protein on glutathione-Sepharose 4B, 4 °C, 25 mM Tris-HCl pH 7.5, 150 mM NaCl, 5 mM MgCl2, 1 mM DTT, 0.01% NP-40; settings: both partners purified
[12] = target: B1; experiment: as above; settings: both partners purified

## mouse full-length talin, P26039 1-2541
[1]
  fold co-sedimentation with vesicles, Rap1b anchored against MLV only: 3 fold

## B1
[2]
  Kd: 3.64 µM
[3]
  fold co-sedimentation with vesicles, Rap1b anchored against MLV only: ~1.5 fold
[4]
  Kd: ~147 µM

B2: mouse RIAM-RAPH (149–438) (domain or fragment)
chain: PELLSKEEEEAKAKADKIKLALEKLKEAKVKKLVVKVHMDDSSTKSLMVDERQLARDVLDNLFEKTHCDCNVDWCLYEIYPELQIERVFEDHENVVEVLSDWTRDTENKVLFLEKEERYAVFKNPQNFYLDNKGKKENKETNEKMNAKNKEYLLEESFCGTSIIVPELEGALYLKEDGKKSWKRRYFLLRASGIYYVPKGKTKTSRDLACFIQFENVNIYYGIQCKMKYKAPTDHCFVLKHPQIQKESQYIKYLCCDDARTLSQWVMGIRIAKYGKTLYDNYQRAVARAG
[5]
  Kd: 5.3 µM

B3: mouse talin-F0 (1–86) (domain or fragment, UniProt P26039 1-86, looked up)
chain: MVALSLKISIGNVVKTMQFEPSTMVYDACRMIRERIPEALAGPPNDFGLFLSDDDPKKGIWLEAGKALDYYMLRNGDTMEYRKKQR
notes: talin (talin-1), mouse, F0 domain, residues 1-86; Isotope labelled or unlabelled as the NMR sample needed; also called F0 domain of talin
[5]
  Kd: 237 µM
[6]
  Kd: ~162 µM

B4: GFP-Rap1b (G12V), loaded with GMP-PNP (natural protein, human, UniProt P61224 1-184, looked up)
chain: MREYKLVVLGSVGVGKSALTVQFVQGIFVEKYDPTIEDSYRKQVEVDAQQCMLEILDTAGTEQFTAMRDLYMKNGQGFALVYSITAQSTFNDLQDLREQILRVKDTDDVPMILVGNKCDLEDERVVGKEQGQNLARQWNNCAFLESSAKSKINVNEIFYDLVRQINRKTPVPGKARKKSSCQLL
notes: Rap1b (G12V) in a pRSET vector; The name puts GFP first, the methods call it a C-terminal GFP fusion tag; also called GMP-PNP-loaded GFP-Rap1b (G12V); not shown: GFP, C-terminal, kept
[7]
  binding result: binds

## B5
[8]
  Kd: ~1.52 µM

B6: C-terminal truncated Rap1b (1–167, G12V), loaded with GMP-PNP (domain or fragment, human, UniProt P61224 1-167, looked up)
chain: MREYKLVVLGSVGVGKSALTVQFVQGIFVEKYDPTIEDSYRKQVEVDAQQCMLEILDTAGTEQFTAMRDLYMKNGQGFALVYSITAQSTFNDLQDLREQILRVKDTDDVPMILVGNKCDLEDERVVGKEQGQNLARQWNNCAFLESSAKSKINVNEIFYDLVRQINR
notes: Rap1b, human, residues 1-167, G12V, in pET28t; Loaded with GMP-PNP; isotope labelled or unlabelled as the NMR sample needed; The removal of the tag is told for the assignment samples; not shown: His6, N-terminal, cleaved
[9]
  binding result: binds
[10]
  binding result: binds

B7: Rap1b (G12V), GMP-PNP loaded, of the GST pull-down of Fig. 3b (natural protein, human, UniProt P61224 1-184, looked up)
chain: MREYKLVVLGSVGVGKSALTVQFVQGIFVEKYDPTIEDSYRKQVEVDAQQCMLEILDTAGTEQFTAMRDLYMKNGQGFALVYSITAQSTFNDLQDLREQILRVKDTDDVPMILVGNKCDLEDERVVGKEQGQNLARQWNNCAFLESSAKSKINVNEIFYDLVRQINRKTPVPGKARKKSSCQLL
notes: human full-length Rap1b in a pGST-1 vector, with G12V as the active form; also called active Rap1b
[11]
  binding result: binds
[12]
  binding result: binds
